Measured values published in WO2020148554A1 (dated 2020).

T1: Sudan Gulu glycoprotein (NC_006432.1) expressed on MDCK-SIAT1 cells (Sudan Gulu (SUDV), UniProt Q7T9D9 33-676)
T1 sequence: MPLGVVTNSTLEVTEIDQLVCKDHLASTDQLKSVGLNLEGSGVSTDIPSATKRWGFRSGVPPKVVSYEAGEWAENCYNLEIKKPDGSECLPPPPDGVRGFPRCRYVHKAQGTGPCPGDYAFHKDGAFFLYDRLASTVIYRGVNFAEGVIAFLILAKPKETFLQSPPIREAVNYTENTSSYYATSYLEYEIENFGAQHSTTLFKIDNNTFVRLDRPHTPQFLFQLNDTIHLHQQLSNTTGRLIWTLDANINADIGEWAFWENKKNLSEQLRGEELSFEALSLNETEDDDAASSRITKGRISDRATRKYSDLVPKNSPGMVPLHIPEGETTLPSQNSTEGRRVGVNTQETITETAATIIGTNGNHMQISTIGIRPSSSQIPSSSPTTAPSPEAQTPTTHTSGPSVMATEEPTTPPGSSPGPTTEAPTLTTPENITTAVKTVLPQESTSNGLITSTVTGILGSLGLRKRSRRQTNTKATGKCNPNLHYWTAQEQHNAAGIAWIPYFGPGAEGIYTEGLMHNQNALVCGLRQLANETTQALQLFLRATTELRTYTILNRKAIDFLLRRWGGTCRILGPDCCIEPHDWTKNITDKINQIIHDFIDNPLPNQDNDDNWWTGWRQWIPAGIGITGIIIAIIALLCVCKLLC

B1: 040 (antibody, V domains shown)
VH: QVQLVESGGGFVQPGGSLRLSCAASGFTFSSYAMSWVRQAPGKGLEWVSTISGSGGTTYYADSVKGRFTISRDNSKNTLYLEMITLRAEDTATYFCANSYYYHSSGLLIRWDDMDVWGQGTTVTVSS
VL: DIQMTQSPSSLSASVGDRVTITCRASQGIRNDLGWYQQKPGKAPKRLIYAASSLQSGVPSRFSGSGSGTEFTLTISSLQPEDFATYYCLQHSSYPWTFGQGTKVEIKR
B2: 66-3-9C (antibody, V domains shown)
VH: EVQLVESGGGLVKPGGSLRLSCAASGFTFSSYNMNWVRQAPGKGLEWVSSITTSSSYIYYAYSVKGRFTISRDNAKNSLYLQMNSLRAEDTAVYYCARFLGYSYGTNYYYYGMDVWGQGTTVTVSS
VL: not shown
B3: 6541 (antibody, V domains shown)
VH: EVQLVQWGAGLLKPSETLSLTCAVYGGSFSGNYWTWIRQPPGKGLEWIGEINHSGSTNYNPSLKSRVTISVDTSKNQFSLKLSSVTAADTAVYYCATKMGGYGDYWHWYFDLWGRGTMVTVSS
VL: EVVMTQSPATLSVSPGERATLSCRASQSLFTNLAWYQQKPGQAPRLLIYGASTRATGIPARFSGSGSGTDFSLTISRLQSEDFAFYYCQQYNDWPLTFGGGTKVDIKR
B4: 6662 (antibody, V domains shown)
VH: EVQLVESGGGLVKPGGSLRLSCAASGFGFSSAWMNWVRQAPGKGLEWVGRIKSKTDGGKTDYAAPVKGRFIMSRDDSKNTLYLQMNSLKTEDAGVYYCTTRIVLNGMDVWGQGTLVTVSS
VL: QSVLTQPPSVSGAPGQRVTISCTGSSSNIGAGYDVHWYQQLPGTAPKLLIYANNNRPSGVPDRFSGSKSGTSASLAITGLQAEDEADYYCQSYDSRLSDGVVFGGGTKLTVLG

Biological target: T1, Sudan Gulu glycoprotein (NC_006432.1) …
Test: indirect immunofluorescence by FACS on MDCK-SIAT1 cells expressing GP

Binder | binding result
B1 | binds
B2 | binds
B3 | binds
B4 | binds
